Columns and labels:
FLAG-tagged GLI2, P10070 = molecular target: T1, FLAG-tagged GLI2, P10070
T1 chain: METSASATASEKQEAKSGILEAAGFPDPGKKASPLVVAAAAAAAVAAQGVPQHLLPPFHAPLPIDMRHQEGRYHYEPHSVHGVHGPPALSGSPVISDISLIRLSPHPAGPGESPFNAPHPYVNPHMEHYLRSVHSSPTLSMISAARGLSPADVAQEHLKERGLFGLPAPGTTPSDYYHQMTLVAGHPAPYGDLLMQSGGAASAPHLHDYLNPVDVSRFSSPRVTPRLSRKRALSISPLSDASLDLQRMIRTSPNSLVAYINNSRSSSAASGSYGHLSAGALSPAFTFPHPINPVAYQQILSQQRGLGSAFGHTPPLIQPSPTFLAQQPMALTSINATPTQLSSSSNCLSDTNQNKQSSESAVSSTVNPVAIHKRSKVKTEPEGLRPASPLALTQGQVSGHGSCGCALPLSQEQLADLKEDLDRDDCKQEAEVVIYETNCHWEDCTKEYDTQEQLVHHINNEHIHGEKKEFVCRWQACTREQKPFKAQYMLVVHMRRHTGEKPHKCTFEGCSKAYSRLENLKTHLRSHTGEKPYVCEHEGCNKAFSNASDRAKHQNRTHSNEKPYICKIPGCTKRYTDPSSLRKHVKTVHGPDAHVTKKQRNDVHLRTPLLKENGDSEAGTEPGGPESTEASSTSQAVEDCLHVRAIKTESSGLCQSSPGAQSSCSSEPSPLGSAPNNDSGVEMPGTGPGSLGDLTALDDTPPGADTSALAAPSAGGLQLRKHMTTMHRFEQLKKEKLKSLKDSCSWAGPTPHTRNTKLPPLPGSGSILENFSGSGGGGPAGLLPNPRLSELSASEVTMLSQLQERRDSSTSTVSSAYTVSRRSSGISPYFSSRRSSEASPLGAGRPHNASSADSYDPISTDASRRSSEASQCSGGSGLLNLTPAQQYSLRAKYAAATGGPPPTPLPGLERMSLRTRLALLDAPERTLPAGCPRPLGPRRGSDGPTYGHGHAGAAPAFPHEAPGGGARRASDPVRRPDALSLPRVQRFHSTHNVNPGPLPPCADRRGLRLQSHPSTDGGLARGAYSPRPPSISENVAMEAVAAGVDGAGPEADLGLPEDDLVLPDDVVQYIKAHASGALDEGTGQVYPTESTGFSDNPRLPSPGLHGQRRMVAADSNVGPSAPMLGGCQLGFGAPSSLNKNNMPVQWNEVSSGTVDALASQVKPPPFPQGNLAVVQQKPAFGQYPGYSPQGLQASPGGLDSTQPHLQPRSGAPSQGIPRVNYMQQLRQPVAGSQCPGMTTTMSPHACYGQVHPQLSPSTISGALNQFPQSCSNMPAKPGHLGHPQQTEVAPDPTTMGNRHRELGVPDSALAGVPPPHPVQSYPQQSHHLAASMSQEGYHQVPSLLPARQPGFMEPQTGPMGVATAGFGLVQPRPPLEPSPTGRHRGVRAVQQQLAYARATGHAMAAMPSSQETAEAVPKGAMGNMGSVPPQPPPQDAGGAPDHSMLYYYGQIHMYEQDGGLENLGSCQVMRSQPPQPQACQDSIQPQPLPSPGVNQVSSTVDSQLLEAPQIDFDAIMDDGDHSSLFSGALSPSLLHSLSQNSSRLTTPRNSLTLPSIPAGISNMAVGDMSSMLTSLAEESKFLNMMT

FLAG-tagged GLI3, P10071 = molecular target: T2, FLAG-tagged GLI3, P10071
T2 chain: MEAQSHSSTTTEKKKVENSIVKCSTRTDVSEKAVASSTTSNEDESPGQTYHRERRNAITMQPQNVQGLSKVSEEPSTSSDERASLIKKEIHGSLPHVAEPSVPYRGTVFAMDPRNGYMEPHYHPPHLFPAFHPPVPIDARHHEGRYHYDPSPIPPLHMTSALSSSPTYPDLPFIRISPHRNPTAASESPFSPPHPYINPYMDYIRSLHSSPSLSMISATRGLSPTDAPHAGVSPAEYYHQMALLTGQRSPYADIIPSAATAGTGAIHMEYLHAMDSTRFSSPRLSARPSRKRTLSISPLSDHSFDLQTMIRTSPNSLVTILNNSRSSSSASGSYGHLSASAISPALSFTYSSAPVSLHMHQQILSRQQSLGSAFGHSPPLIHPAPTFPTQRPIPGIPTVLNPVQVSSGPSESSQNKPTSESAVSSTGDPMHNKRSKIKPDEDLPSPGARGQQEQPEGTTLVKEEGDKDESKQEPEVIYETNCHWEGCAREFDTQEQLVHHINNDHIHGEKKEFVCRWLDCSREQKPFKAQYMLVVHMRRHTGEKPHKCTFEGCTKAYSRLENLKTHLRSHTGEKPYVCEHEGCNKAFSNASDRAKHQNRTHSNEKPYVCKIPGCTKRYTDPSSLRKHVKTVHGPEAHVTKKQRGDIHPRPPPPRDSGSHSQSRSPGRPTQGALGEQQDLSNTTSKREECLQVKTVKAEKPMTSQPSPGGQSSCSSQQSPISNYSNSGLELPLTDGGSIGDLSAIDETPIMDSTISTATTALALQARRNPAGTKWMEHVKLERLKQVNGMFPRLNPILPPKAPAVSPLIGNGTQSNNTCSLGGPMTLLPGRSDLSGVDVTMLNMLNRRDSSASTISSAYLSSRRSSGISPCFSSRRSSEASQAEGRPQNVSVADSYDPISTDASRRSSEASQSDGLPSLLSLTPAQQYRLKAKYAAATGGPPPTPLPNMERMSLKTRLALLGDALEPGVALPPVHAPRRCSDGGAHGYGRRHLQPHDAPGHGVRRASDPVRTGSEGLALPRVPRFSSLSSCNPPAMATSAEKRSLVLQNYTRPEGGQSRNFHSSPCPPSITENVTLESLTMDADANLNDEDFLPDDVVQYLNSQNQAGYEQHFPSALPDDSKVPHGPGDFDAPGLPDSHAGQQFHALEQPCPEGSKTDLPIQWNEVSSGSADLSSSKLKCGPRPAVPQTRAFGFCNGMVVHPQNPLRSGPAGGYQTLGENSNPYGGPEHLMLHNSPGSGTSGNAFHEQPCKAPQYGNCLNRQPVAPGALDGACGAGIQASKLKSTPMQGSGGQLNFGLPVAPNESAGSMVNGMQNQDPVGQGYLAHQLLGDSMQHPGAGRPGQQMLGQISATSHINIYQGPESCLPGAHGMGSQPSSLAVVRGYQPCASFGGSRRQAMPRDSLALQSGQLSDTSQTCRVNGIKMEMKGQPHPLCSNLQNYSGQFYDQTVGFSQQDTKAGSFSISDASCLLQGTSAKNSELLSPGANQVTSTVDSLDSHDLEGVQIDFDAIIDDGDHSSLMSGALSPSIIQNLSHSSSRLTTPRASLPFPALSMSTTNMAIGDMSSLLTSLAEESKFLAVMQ

B1: FLAG-tagged wild-type ULK3 (human serine/threonine kinase ULK3) (protein)
chain: MAGPGWGPPRLDGFILTERLGSGTYATVYKAYAKKDTREVVAIKCVAKKSLNKASVENLLTEIEILKGIRHPHIVQLKDFQWDSDNIYLIMEFCAGGDLSRFIHTRRILPEKVARVFMQQLASALQFLHERNISHLDLKPQNILLSSLEKPHLKLADFGFAQHMSPWDEKHVLRGSPLYMAPEMVCQRQYDARVDLWSMGVILYEALFGQPPFASRSFSELEEKIRSNRVIELPLRPLLSRDCRDLLQRLLERDPSRRISFQDFFAHPWVDLEHMPSGESLGRATALVVQAVKKDQEGDSAAALSLYCKALDFFVPALHYEVDAQRKEAIKAKVGQYVSRAEELKAIVSSSNQALLRQGTSARDLLREMARDKPRLLAALEVASAAMAKEEAAGGEQDALDLYQHSLGELLLLLAAEPPGRRRELLHTEVQNLMARAEYLKEQVKMRESRWEADTLDKEGLSESVRSSCTLQ
- in vitro kinase assay, phosphorylation signal (32P autoradiography) (FLAG-tagged GLI2, P10070): The strongest phosphorylation signal was detected in the case of GLI2
- in vitro kinase assay, phosphorylation signal (32P autoradiography) (FLAG-tagged GLI3, P10071): GLI1 and GLI3 were also phosphorylated by ULK3, but with significantly lower intensity as compared to GLI2
